In test [1] the target is T1, Recombinant Human TNF-α/TNFSF1A (human, UniProt P01375 77-233).
T1 construct: also called hTNF-α; huTNFα
As to the kind of experiment: SPR (BIACORE), antibody captured, TNFα in solution. As to the method:
The BIACORE assay (Biacore, Inc, Piscataway, N.J.) determines the affinity of antibodies with kinetic measurements of on-rate and off-rate constants. Binding of antibodies to a target antigen (for example, a purified recombinant target antigen) is determined by surface plasmon resonance-based measurements with a Biacore® 1000 or 3000 instrument (Biacore® AB, Uppsala, Sweden) using running HBS-EP (10 mM HEPES [pH 7.4], 150 mM NaCl, 3 mM EDTA, and 0.005% surfactant P20) at 25° C. All chemicals are obtained from Biacore® AB (Uppsala, Sweden) or otherwise from a different source as described. For example, approximately 5000 RU of goat anti-mouse IgG, (Fcγ), fragment specific polyclonal antibody (Pierce Biotechnology Inc, Rockford, Ill.) diluted in 10 mM sodium acetate (pH 4.5) is directly immobilized across a CM5 research grade biosensor chip using a standard amine coupling kit according to manufacturer's instructions and procedures at 25 μg/ml. Unreacted moieties on the biosensor surface are blocked with ethanolamine. Modified carboxymethyl dextran surface in flowcell 2 and 4 is used as a reaction surface. Unmodified carboxymethyl dextran without goat anti-mouse IgG in flow cell 1 and 3 is used as the reference surface. For kinetic analysis, rate equations derived from the 1:1 Langmuir binding model are fitted simultaneously to association and dissociation phases of all eight injections (using global fit analysis) with the use of Biaevaluation 4.0.1 software. Purified antibodies are diluted in HEPES-buffered saline for capture across goat anti-mouse IgG specific reaction surfaces. Antibodies to be captured as a ligand (25 μg/ml) are injected over reaction matrices at a flow rate of 5 μl/minute. The association and dissociation rate constants, kₒₙ (M⁻¹ s⁻¹) and koff (s⁻¹), are determined under a continuous flow rate of 25 μl/minute. Rate constants are derived by making kinetic binding measurements at different antigen concentrations ranging from 10-200 nM. The equilibrium dissociation constant (M) of the reaction between antibodies and the target antigen is then calculated from the kinetic rate constants by the following formula: KD=koff/kₒₙ. Binding is recorded as a function of time and kinetic rate constants are calculated. In this assay, on-rates as fast as 10⁶ M⁻¹ s⁻¹ and off-rates as slow as 10⁻⁶ s⁻¹ can be measured.
In general terms: Surface plasmon resonance follows binding to a sensor surface in real time, without labels.

Test [2] deals with T1, Recombinant Human TNF-α/TNFSF1A. As to the kind of experiment: cell-based or functional assay.

T1 sequence (P01375 77-233 limits assumed): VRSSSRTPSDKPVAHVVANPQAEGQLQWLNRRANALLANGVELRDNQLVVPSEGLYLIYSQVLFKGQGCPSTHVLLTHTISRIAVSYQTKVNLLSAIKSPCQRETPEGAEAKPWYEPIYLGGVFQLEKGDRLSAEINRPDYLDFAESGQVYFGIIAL

B1: AB365 (antibody, V domains shown)
VH: EVQLVQSGSELKKPGASVKVSCKASGYTFTNYGMNWVRQAPGQGLEWMGWINTYTGEPTYADDFKGRFVFSLDTSVSTAYLQISSLKAEDTAVYFCARKFLTTVVVTDYAMDYWGQGTTVTVSS
VL: DIQMTQSPSSLSASVGDRVTITCRASQDISNYLNWYQQKPGKAPKLLIYYTSRLQSGVPSRFSGSGSGTDYTLTISSLQPEDFATYYCQQGNTLPPTFGQGTKLEIK
notes: Full-length humanized antibody made in HEK 293-6E; also called hMAK199VH.1b/hMAK199VL.1b
What is called Kd is the constant that tells how readily two partners part at equilibrium. Usually koff stands for a measure of how fast the partners let go of each other. For orientation: kon means a measure of how fast the partners come together. With B1, in test [1], the dissociation constant Kd turned out to be 0.91 nM, the koff worked out at 0.001 s⁻¹ and the kon stood at 1.1e+06 M⁻¹ s⁻¹. In test [2], the “TNFα Neutralization Assay IC50 nM (L929 cells)” value was 1.52 nM.

B2: AB356 (antibody, V domains shown)
VH: EVQLVQSGSELKKPGASVKVSCKASGYTFTNYGMNWVRQAPGQGLEWMGWINTYTGEPTYADDFKGRFVFSLDTSVSTAYLQISSLKAEDTAVYYCARKFLTTVVVTDYAMDYWGQGTTVTVSS
VL: DIVMTQSPAFLSVTPGEKVTITCRASQDISNYLNWYQQKPDQAPKLLIYYTSRLQSGVPSRFSGSGSGTDYTFTISSLEAEDAATYYCQQGNTLPPTFGQGTKLEIK
notes: Full-length humanized antibody made in HEK 293-6E; also called hMAK199VH.1/hMAK199VL.2b
With B2, in test [1], the Kd came out at 0.67 nM, the koff came out at 0.00089 s⁻¹ and the kon amounted to 1.3e+06 M⁻¹ s⁻¹. In test [2], the “TNFα Neutralization Assay IC50 nM (L929 cells)” value is 0.87 nM.

B3: AB355 (antibody, V domains shown)
VH: EVQLVQSGSELKKPGASVKVSCKASGYTFTNYGMNWVRQAPGQGLEWMGWINTYTGEPTYADDFKGRFVFSLDTSVSTAYLQISSLKAEDTAVYYCARKFLTTVVVTDYAMDYWGQGTTVTVSS
VL: DIVMTQSPAFLSVTPGEKVTITCRASQDISNYLNWYQQKPDQTVKLLIYYTSRLQSGVPSRFSGSGSGTDYTFTISSLEAEDAATYFCQQGNTLPPTFGQGTKLEIK
notes: Full-length humanized antibody made in HEK 293-6E; also called hMAK199VH.1/hMAK199VL.2a
In the case of B3, in test [1], the Kd stood at 0.59 nM, the koff was 0.0014 s⁻¹ and the kon worked out at 2.4e+06 M⁻¹ s⁻¹. The “TNFα Neutralization Assay IC50 nM (L929 cells)” value in test [2] was 1.9 nM.

B4: AB377 (antibody, V domains shown)
VH: EIQLVQSGAEVKKPGASVKVSCKASGYTFTNYGMNWVRQAPGQGLEWMGWINTYTGEPTYADDFKGRFTFTLDTSTSTAYMELSSLRSEDTAVYFCARKFLTTVVVTDYAMDYWGQGTTVTVSS
VL: DIQMTQSPSSLSASVGDRVTITCRASQDISNYLNWYQQKPGKAPKLLIYYTSRLQSGVPSRFSGSGSGTDYTLTISSLQPEDFATYYCQQGNTLPPTFGQGTKLEIK
notes: Full-length humanized antibody made in HEK 293-6E; also called hMAK199VH.2a/hMAK199VL.1b
On to B4, for which, in test [1], the equilibrium dissociation constant (Kd) was 1.4 nM, the koff amounted to 0.0015 s⁻¹ and the kon amounted to 1.1e+06 M⁻¹ s⁻¹. The “TNFα Neutralization Assay IC50 nM (L929 cells)” value in test [2] was more than 20 nM.

B5: AB362 (antibody, V domains shown)
VH: EIQLVQSGSELKKPGASVKVSCKASGYTFTNYGMNWVRQAPGQGLEWMGWINTYTGEPTYADDFKGRFVFSLDTSVSTAYLQISSLKAEDTAVYFCARKFLTTVVVTDYAMDYWGQGTTVTVSS
VL: DIVMTQSPAFLSVTPGEKVTITCRASQDISNYLNWYQQKPDQAPKLLIYYTSRLQSGVPSRFSGSGSGTDYTFTISSLEAEDAATYYCQQGNTLPPTFGQGTKLEIK
notes: Full-length humanized antibody made in HEK 293-6E; also called hMAK199VH.1a/hMAK199VL.2b
For the molecule B5, in test [1], the Kd is 0.83 nM, the koff was 0.0011 s⁻¹ and the kon is 1.3e+06 M⁻¹ s⁻¹. For the same molecule, in test [2], the “TNFα Neutralization Assay IC50 nM (L929 cells)” value amounted to 2.11 nM.

B6: AB361 (antibody, V domains shown)
VH: EIQLVQSGSELKKPGASVKVSCKASGYTFTNYGMNWVRQAPGQGLEWMGWINTYTGEPTYADDFKGRFVFSLDTSVSTAYLQISSLKAEDTAVYFCARKFLTTVVVTDYAMDYWGQGTTVTVSS
VL: DIVMTQSPAFLSVTPGEKVTITCRASQDISNYLNWYQQKPDQTVKLLIYYTSRLQSGVPSRFSGSGSGTDYTFTISSLEAEDAATYFCQQGNTLPPTFGQGTKLEIK
notes: Full-length humanized antibody made in HEK 293-6E; also called hMAK199VH.1a/hMAK199VL.2a
Consider B6, for which, in test [1], the Kd was 0.79 nM, the koff was 0.00098 s⁻¹ and the kon was 1.2e+06 M⁻¹ s⁻¹. In test [2], the “TNFα Neutralization Assay IC50 nM (L929 cells)” value is 0.82 nM.

The values are drawn from patent US20150111251A1 (AbbVie / Abbott, published 2015).
